Source: publication PMC10419308, “Structural Insight into the Amino Acid Environment of the Two-Domain Laccase’s Trinuclear Copper Cluster” (International Journal of Molecular Sciences, 2023)

Experiments:
purified protein [1] = substrate: CCn1c(=NN=c2sc3cc(S(=O)(=O)O)ccc3n2CC)sc2cc(S(=O)(=O)O)ccc21; test: purified protein; format: biochemical, Streptomyces griseoflavus; conditions: pH 4.0, 50 mM Britton-Robinson buffer, 30 °C, co-substrate O2, table header prints unit as MM
purified protein [2] = substrate: COc1cccc(OC)c1O; test: purified protein; format: biochemical, Streptomyces griseoflavus; conditions: 30 °C, co-substrate O2, table header prints unit as MM
[3] = pH 8.5, 50 mM Britton-Robinson buffer
[4] = pH 7.0, 50 mM Britton-Robinson buffer
[5] = pH 7.5, 50 mM Britton-Robinson buffer

Protein | Km (purified protein [1]) | kcat (purified protein [1]) | kcat/Km (purified protein [1]) | Km (purified protein [2]; [3]) | kcat (purified protein [2]; [3]) | kcat/Km (purified protein [2]; [3]) | Km (purified protein [2]; [4]) | kcat (purified protein [2]; [4]) | kcat/Km (purified protein [2]; [4]) | Km (purified protein [2]; [5]) | kcat (purified protein [2]; [5]) | kcat/Km (purified protein [2]; [5])
SgfSL (Streptomyces griseoflavus Small Laccase) (Streptomyces griseoflavus; D268N/M199G/R240H) (protein, pET32-Xa/LIC, E. coli BL21(DE3)/Rosetta; N-terminal thioredoxin-His tail cut off with factor Xa; homotrimer; all variants tested here carry D268N (wild-type data copied from earlier work)) AGAAPAGGEVRRVTMYAERLAGGQMGYGLEKGKASIPGPLIELNEGDTLHVEFENTMDVPVSLHVHGLDYEISSDGTKQNKSHVEPGGTRTYTWRTHEPGRRADGTWRAGSAGYWHYHDHVVGTEHGTGGIRNGLYGPVIVRRKGDVLPDATHTIVFNDGTINNRPAHTGPNFEATVGDRVEIVMITHGEYYHTFHMHGHHWADNRTGMLTGPDDPSQVIDNKICGPANSFGFQIIAGEGVGAGAWMYHCHVQSHSDMGMVGLFLVKKPDGTIPGYDPQEHAH | 250 ± 20 µM | 38.9 ± 0.99 s⁻¹ | 156000 M⁻¹ s⁻¹ | 240 ± 30 µM | 8.19 ± 0.13 s⁻¹ | 34100 M⁻¹ s⁻¹ | – | – | – | – | – | –
SgfSL (Streptomyces griseoflavus Small Laccase) (Streptomyces griseoflavus; D268N/M199A) (protein, pET32-Xa/LIC, E. coli BL21(DE3)/Rosetta; N-terminal thioredoxin-His tail cut off with factor Xa; homotrimer; all variants tested here carry D268N (wild-type data copied from earlier work)) AGAAPAGGEVRRVTMYAERLAGGQMGYGLEKGKASIPGPLIELNEGDTLHVEFENTMDVPVSLHVHGLDYEISSDGTKQNKSHVEPGGTRTYTWRTHEPGRRADGTWRAGSAGYWHYHDHVVGTEHGTGGIRNGLYGPVIVRRKGDVLPDATHTIVFNDATINNRPAHTGPNFEATVGDRVEIVMITHGEYYHTFHMHGHRWADNRTGMLTGPDDPSQVIDNKICGPANSFGFQIIAGEGVGAGAWMYHCHVQSHSDMGMVGLFLVKKPDGTIPGYDPQEHAH | 110 ± 30 µM | 21.4 ± 1.12 s⁻¹ | 195000 M⁻¹ s⁻¹ | – | – | – | 870 ± 100 µM | 0.8 ± 0.03 s⁻¹ | 920 M⁻¹ s⁻¹ | – | – | –
SgfSL (Streptomyces griseoflavus Small Laccase) (Streptomyces griseoflavus; D268N/M199G) (protein, pET32-Xa/LIC, E. coli BL21(DE3)/Rosetta; N-terminal thioredoxin-His tail cut off with factor Xa; homotrimer; all variants tested here carry D268N (wild-type data copied from earlier work)) AGAAPAGGEVRRVTMYAERLAGGQMGYGLEKGKASIPGPLIELNEGDTLHVEFENTMDVPVSLHVHGLDYEISSDGTKQNKSHVEPGGTRTYTWRTHEPGRRADGTWRAGSAGYWHYHDHVVGTEHGTGGIRNGLYGPVIVRRKGDVLPDATHTIVFNDGTINNRPAHTGPNFEATVGDRVEIVMITHGEYYHTFHMHGHRWADNRTGMLTGPDDPSQVIDNKICGPANSFGFQIIAGEGVGAGAWMYHCHVQSHSDMGMVGLFLVKKPDGTIPGYDPQEHAH | 220 ± 30 µM | 37.7 ± 2.41 s⁻¹ | 171000 M⁻¹ s⁻¹ | – | – | – | – | – | – | 290 ± 20 µM | 1.88 ± 0.05 s⁻¹ | 6490 M⁻¹ s⁻¹
